From US12077763B2, “RNA-based control of powdery mildew” (Greenlight Biosciences, Inc., priority 2021, dated 2024)

Tested on: E. necator
Assay: Leaf disc assay, dry inoculum (settling tower), decrease in disease severity / hyphal growth (Example 2)
Conditions: decrease in disease severity (hyphal growth) relative to untreated control, value ± SE; for % decrease =/− SE TP2: time point 2; for % decrease =/− SE TP1: time point 1 (untreated control hyphal growth ≥50%)

Molecule	% decrease =/− SE TP2	% decrease =/− SE TP1
GS2732 (nucleic acid) sense: GGAAAAUGUGAGUUGCCGCCAUCGAUAAUUAUGUCUCCUUGAUCGAGGAAUGGCAAUAAUGUUUCAAUAAAAUCAUCAACAGGCUUUCCAGCCAUGACAAGCAGCAUAAUACGACGUGGUUUUUUUAGUUUACUCACAAAUUCCUGGAUAGAACGAGCACCUUCAAUAGAUUUCCCUUUUGCCUCAUUUUCAAGAAAGUGGUCUACCUUAGCUACAGUUCGAUUAUAUGCAAUAACAUUAAAUCCAUGGUCUGCAGCAUUCAGAAUUAGAUUCUGCCCCAUGACAGCUAGACCGAUAAGGCCAAAGUCUCCUGUAGCAGCACUCAUAUUUUUUUGAUUAUAAAUUUAGAAGCCCAAAGACUGGAGCUUAUAUGGAGAACAGAGAUUACACAGAUGGGA antisense: UCCCAUCUGUGUAAUCUCUGUUCUCCAUAUAAGCUCCAGUCUUUGGGCUUCUAAAUUUAUAAUCAAAAAAAUAUGAGUGCUGCUACAGGAGACUUUGGCCUUAUCGGUCUAGCUGUCAUGGGGCAGAAUCUAAUUCUGAAUGCUGCAGACCAUGGAUUUAAUGUUAUUGCAUAUAAUCGAACUGUAGCUAAGGUAGACCACUUUCUUGAAAAUGAGGCAAAAGGGAAAUCUAUUGAAGGUGCUCGUUCUAUCCAGGAAUUUGUGAGUAAACUAAAAAAACCACGUCGUAUUAUGCUGCUUGUCAUGGCUGGAAAGCCUGUUGAUGAUUUUAUUGAAACAUUAUUGCCAUUCCUCGAUCAAGGAGACAUAAUUAUCGAUGGCGGCAACUCACAUUUUCC	18 ± 10%	
GS2804 (nucleic acid) sense: UUUUAAAGCUAUGUAUCCUCAAGUAACAGAAUUAGAAAACCUAGUUUUCAAAUUGAGAUUUUGGAAAAAAUCUAACAACCACUUCACUUGGCUCCAUCAAUUUUGGAAAUAUAACUUAGGAGAUCUAAAACACGGCGAGAGUAACCCCAUUCAUUAUCAUACCAUGAUACGAGUUUGACAAAGUUGUCAUUGAGCGAGAUUCCAGCUUUCGCGUCGAAAAUGGAUGAGUGAUUAUCACCGAUUAAAUCAGUUGAAACGAUGUCAUCCUCAGUAUAAGAAAGUAUGCCUUUUAAUUCACCAUUGGCAGCCUCCUUGAUAGCAGCCUUAAUUUGGUCAUAAGUAGCACCCUUUCCAAUGCGGCAUGUUAAGUCAACAACGGAAACAUUAGCAGUGGGUA antisense: UACCCACUGCUAAUGUUUCCGUUGUUGACUUAACAUGCCGCAUUGGAAAGGGUGCUACUUAUGACCAAAUUAAGGCUGCUAUCAAGGAGGCUGCCAAUGGUGAAUUAAAAGGCAUACUUUCUUAUACUGAGGAUGACAUCGUUUCAACUGAUUUAAUCGGUGAUAAUCACUCAUCCAUUUUCGACGCGAAAGCUGGAAUCUCGCUCAAUGACAACUUUGUCAAACUCGUAUCAUGGUAUGAUAAUGAAUGGGGUUACUCUCGCCGUGUUUUAGAUCUCCUAAGUUAUAUUUCCAAAAUUGAUGGAGCCAAGUGAAGUGGUUGUUAGAUUUUUUCCAAAAUCUCAAUUUGAAAACUAGGUUUUCUAAUUCUGUUACUUGAGGAUACAUAGCUUUAAAA	10 ± 8%	32 ± 5%
GS2680 (nucleic acid) sense: UACUAACAAACUGUCCACCAAAAGUAUAUAUAAUUCCUGCAACUGAGGGAGUAGAUCGCUUGCAAAUAAAAUCAAAAUCUAGCAUUCCUUGAACAGCUCUAGGCUGAAGACCAUAGACGAAACAUCUUGUUUUAUCAUGGAAGAGUGUAUGAGUUGCGUGAGGGCUCAAUGGGCGGCUAGGAGCAGCAAACCGACAGAUGUUAUCAUUGGCUGAUUGCCCAACUUUCGUAGUAUCAUUUGGAGUAGCUGAUGGCAUUUUAAAAUAUUACAAGGUCACAGAGUGUAAUUUUGGGCCUGAUUUCUUCUGUAGAGAUGACUCAAGUAGUAAUAUUUAUCUCUUUCAAUGGUGUAGUAUAUUAAUAGUAUACUCGGGAGAGAAAAUGAUGUGAUAAAAAUUA antisense: UAAUUUUUAUCACAUCAUUUUCUCUCCCGAGUAUACUAUUAAUAUACUACACCAUUGAAAGAGAUAAAUAUUACUACUUGAGUCAUCUCUACAGAAGAAAUCAGGCCCAAAAUUACACUCUGUGACCUUGUAAUAUUUUAAAAUGCCAUCAGCUACUCCAAAUGAUACUACGAAAGUUGGGCAAUCAGCCAAUGAUAACAUCUGUCGGUUUGCUGCUCCUAGCCGCCCAUUGAGCCCUCACGCAACUCAUACACUCUUCCAUGAUAAAACAAGAUGUUUCGUCUAUGGUCUUCAGCCUAGAGCUGUUCAAGGAAUGCUAGAUUUUGAUUUUAUUUGCAAGCGAUCUACUCCCUCAGUUGCAGGAAUUAUAUAUACUUUUGGUGGACAGUUUGUUAGUA	11 ± 5%	12 ± 4%
GS2684 (nucleic acid) sense: UUGGCAGCUCGCCAUUUCUUAUCAAAGAGAUACCUAAAUGAUAAACUUAAAAUACUUGCAGUGAAUAUAUCUGCUAGAGUAAGACGCUCUCCAACUAAGAAUGUGUUGUUUUGAAGAGUAUCCUCAAAAAUUUGAGCAUAAUCGAUUGUUUUUUUGACACCUUCAUCAUAAACCUUUUUAUUGUAUGCGACAAUACCAAAAAAAGGAUAAAGCCAGCUGGCAUAGCAGUUACUAAUAUCUUGAUUGACAAAAGACAUCCACUUUAAAAUAGAGGCAUAAGUCUAAUUAUGAAAGUCCACACGGAGUGUUAAGACAGGGACUGUUUUAUGUCAAGGAAAAUUUUUCAACUGAGAGAGCUUAGCAUACUCCUGCUUGGUUUU antisense: AAAACCAAGCAGGAGUAUGCUAAGCUCUCUCAGUUGAAAAAUUUUCCUUGACAUAAAACAGUCCCUGUCUUAACACUCCGUGUGGACUUUCAUAAUUAGACUUAUGCCUCUAUUUUAAAGUGGAUGUCUUUUGUCAAUCAAGAUAUUAGUAACUGCUAUGCCAGCUGGCUUUAUCCUUUUUUUGGUAUUGUCGCAUACAAUAAAAAGGUUUAUGAUGAAGGUGUCAAAAAAACAAUCGAUUAUGCUCAAAUUUUUGAGGAUACUCUUCAAAACAACACAUUCUUAGUUGGAGAGCGUCUUACUCUAGCAGAUAUAUUCACUGCAAGUAUUUUAAGUUUAUCAUUUAGGUAUCUCUUUGAUAAGAAAUGGCGAGCUGCCAA	18 ± 4%	31 ± 4%
GS3295 (nucleic acid) sense: UCAUCUUUUGCCGCUCUUUAUCAUGAUCUUGAUAUGGGAUUUACACCGAUCAACUUUACAUUUUACUGGGCACCUCUACCUUGGAAUCGUGCUCGUGAUCAUGCCCAAAGAACUGUUGCUAGGACGAACCUCGCUCCAAGGGGGCUUUAUGGGAAUCUGCCUCGUAGUAUAAAGUUCUGCAGCUGGCUCUACGGAUUGCAUCUACAACAACUACAACAUCAUCAUCAUCAUCAUCUUCAUCUUCAUCUUC antisense: GAAGAUGAAGAUGAAGAUGAUGAUGAUGAUGAUGUUGUAGUUGUUGUAGAUGCAAUCCGUAGAGCCAGCUGCAGAACUUUAUACUACGAGGCAGAUUCCCAUAAAGCCCCCUUGGAGCGAGGUUCGUCCUAGCAACAGUUCUUUGGGCAUGAUCACGAGCACGAUUCCAAGGUAGAGGUGCCCAGUAAAAUGUAAAGUUGAUCGGUGUAAAUCCCAUAUCAAGAUCAUGAUAAAGAGCGGCAAAAGAUGA	26 ± 8%	33 ± 6%
GS2685 (nucleic acid) sense: GUCUCAUAUCACGAACAGCGAAGCGACCUAAUGGAGGAUAACUUGAAAAUGACUCAACACACAUAGGUUUAGAUGGAAUCAUUUUAACAAUUGCUGCGUCACCAGAUUUAACAAAUUUUGGAGUUGCCUCAAUAGACUUUCCAGUACGACGAUCAAUUUUUUCAAGAAGUUCUGCAAAUUUGCAAGCAAUGUGAGCCGUAUGACAAUCAAGUACAGGUGCGUAACCAGCUCCAAUUUGACCUGGGUGGUUUAACACGAUAACUUGUGCGGUAAAAUGCUCGGCACCCUUAGGGGGGUCAUUCUUAGAAUCACCACAAACAUUACCACGACGGAUUUCUUUCACCGAAACGUUCUUUACAUUGAAGCCAA antisense: UUGGCUUCAAUGUAAAGAACGUUUCGGUGAAAGAAAUCCGUCGUGGUAAUGUUUGUGGUGAUUCUAAGAAUGACCCCCCUAAGGGUGCCGAGCAUUUUACCGCACAAGUUAUCGUGUUAAACCACCCAGGUCAAAUUGGAGCUGGUUACGCACCUGUACUUGAUUGUCAUACGGCUCACAUUGCUUGCAAAUUUGCAGAACUUCUUGAAAAAAUUGAUCGUCGUACUGGAAAGUCUAUUGAGGCAACUCCAAAAUUUGUUAAAUCUGGUGACGCAGCAAUUGUUAAAAUGAUUCCAUCUAAACCUAUGUGUGUUGAGUCAUUUUCAAGUUAUCCUCCAUUAGGUCGCUUCGCUGUUCGUGAUAUGAGAC	15 ± 0%	23 ± 0%
ES49: dsRNA trigger SEQ ID NO 112; gene target Hypotethical effector (nucleic acid) DNA: ATGCGTTTCATCATAGGAGCTGTCGTCTCTTCACTCATTTTGTCGCCAATTTCAGTGCTTTCTATGGCGGCTAGTAATGACTCTACCGAAGCTGCAGCGCATATCATAAATGATTCTATACTAGAAGATGTTTCGAACGTTGCAGATTTCGACTGGTCTTCAACGTCATATCAAGGCCTAGAGAAAAGATTTTGTTTCAGACGAGGATGCAAGGAAGAAAAGCTCAAGAGGACATCAGGTTTCCAATGCAAAAAGAAGTACATCAGCTCGGAGAAAATTGAGAGAGCAAAAGCCGCTGGCTGTCCGGAAATCAAAAAAAATAAGCAGCGATCCGCTTTTCCTTCTCTCTACACTGCATCCGACTTTGCTGTTCCAGGTCCTTACCTAGAATGGCCGATCAGCCGCAATGGAAGGTTTTGGAACAAATTGAGTAAGGGCAAGTACCGTATCATCATGACCAAAAGCTGCAAGGTGG	6 ± 3%	9 ± 1%
GS2799 (nucleic acid) sense: UAGCAACGGGACGUCCACUUUGUACUCUUACAGCUUCACGUGUAUUAUCAAUCACUGAUUGAUGGUACUCAUGAGAGCCAUGAGAAAAAUUCAUACGGACAACAUUCAGACCAGCUCUUCGAAGUCCAUUUAAGGCCUCGACAUUGUUAGUUUUGGGGCCAAUAGUACAGAUAAUCGAGGUUCGACGAUAAUUCUUAGAGGUGGCAUACUCAGUGUCAAGUUGUGAUAGCCAUUCAAUGCGAGUAGAGCUGGUUAGGUGAUUCAUAGCUGAAACCAUAUUUUGAUCUAAUGAGAACUUUUAUUUGAUGUGAACGUAAAUAGUUGAGGAUGUGUAAAGUUGAGGAGAGAGUUGGCCAAAGAUACUCUUUGAGGGUAGCAAAUUUCGUUUAUCUUAUUAU antisense: AUAAUAAGAUAAACGAAAUUUGCUACCCUCAAAGAGUAUCUUUGGCCAACUCUCUCCUCAACUUUACACAUCCUCAACUAUUUACGUUCACAUCAAAUAAAAGUUCUCAUUAGAUCAAAAUAUGGUUUCAGCUAUGAAUCACCUAACCAGCUCUACUCGCAUUGAAUGGCUAUCACAACUUGACACUGAGUAUGCCACCUCUAAGAAUUAUCGUCGAACCUCGAUUAUCUGUACUAUUGGCCCCAAAACUAACAAUGUCGAGGCCUUAAAUGGACUUCGAAGAGCUGGUCUGAAUGUUGUCCGUAUGAAUUUUUCUCAUGGCUCUCAUGAGUACCAUCAAUCAGUGAUUGAUAAUACACGUGAAGCUGUAAGAGUACAAAGUGGACGUCCCGUUGCUA	20 ± 8%	31 ± 5%
